These results are taken from patent US20180037641A1 (WASHINGTON UNIVERSITY, published 2018).

The target in assay [1] is T1, endogenous murine tau (mouse brain and ISF) (mouse, UniProt P10637-2 1-430, limits assumed).
T1 construct: Mixture of isoforms from tissue; also called mouse tau (Western blot, immunostaining, ISF immunoprecipitation)
Briefly: immunoblot of RAB soluble brain fractions of KO, WT and P301S mice. In general terms: In western blotting, separated proteins are transferred to a membrane and probed.

Assay [2] deals with T2, recombinant human tau, longest isoform hTau40 (441 aa) (human, UniProt P10636-8 1-441).
T2 construct: range 1-441
Briefly: SPR (Biacore), tau immobilised on CM-5 chip, antibody injected 0.78-400 nM. The method, then:
To characterize the binding affinity of the HJ8 and HJ9 series antibodies to mouse tau and human tau, Biacore's SPR technology was used. Biacore sensor chip CM-5 (Carboxymethylated dextran matrix) was activated by using EDC (1-ethyl-3-(3-dimethylaminopropyl)-carbodiimid) and NHS (N-hydroxysuccinimide) in 1:1 ratio. 2). Then ligand, either mouse tau or human Tau, were immobilized (20 ug/ml, in 10 mM sodium acetate pH 3.5) on Biacore CM-5 sensor chip at a flow rate of 5 μI/min. The remaining unbound area on the Biacore CM-5 sensor chip was deactivated by passage of 1 M ethanolamine pH 8.5.
Following preparation of the sensor chip surface, analytes (e.g. antibody) were injected with different concentrations (0.78 nM-400 nM) in filtered, degassed 0.01 M Hepes buffer, 0.15 M NaCl, 0.005% surfactant P20, pH 7.4 at a flow rate of 10 μI/min. All the samples were run in duplicates. After each cycle/run with single antibody concentration, the surface of the chip was regenerated by using 10 mM glycine pH 1.7, to remove the bound antibody/analyte, leaving the monomer/fibrils/ligand attached to the surface.

Assay [3] has as its target T2, recombinant human tau, longest isoform …. Put plainly: SPR (BIAcore 2000), tau immobilised on CM-5 chip, antibody injected 0.11-7.5 µg/ml, 1:1 Langmuir global fit. The method, then:
Prior to testing in vivo, the binding affinities and epitopes of the antibodies, which are all lgG2b isotype, were determined. Human and mouse tau was immobilized on a sensor chip CMS for surface plasmon resonance (SPR) (FIGS. 30A-30G). […] The association (Kₐ) and dissociation (Kd) was calculated by using BIAevaluation software (Biacore AB) selecting Fit kinetics simultaneous Kd/Kₐ (Global fitting) with 1:1 (Langmuir) interaction model. […] The epitope of HJ9.3 was mapped to the repeat domain (RD) region, between amino acids 306-320. […] It binds to human tau (FIG. 30E) but not to mouse tau (FIG. 30F). […] The epitope of HJ8.5 was mapped to amino acids 25-30. All 3 anti-tau antibodies strongly recognized human tau fibrils on SPR (FIG. 31). Because the fibrils have multiple identical epitopes, the association and dissociation rates could not be directly calculate.
Surface plasmon resonance Surface plasmon resonance experiments were performed on BIAcore 2000 surface plasmon resonance instrument (GE Healthcare-BIAcore). Biacore sensor chip CM-5 was activated by using EDC (1-ethyl-3-(3-dimethylaminopropyl)-carbodiimide) and NHS (N-hydroxysuccinimide) in a 1:1 ratio for 7 minutes.
For orientation: In SPR one partner is held on a chip, and binding of the other changes the refractive index at the surface.

Assay [4] concerns the target recombinant mouse tau, longest isoform mTau40 (432 aa) (mouse, UniProt P10637-2 1-430, limits assumed). Put plainly: SPR (Biacore), mouse tau immobilised, antibody injected. The method, then:
FIGS. 30A, 30B, 30C, 30D, 30E, 30F and 30G. Characterization of anti-tau antibodies by surface plasmon resonance (SPR) and Immunoblotting. The figure depicts SPR sensorgrams showing the binding of each anti-tau antibody towards immobilized recombinant human tau (longest isoforms hTau40, 441 aa) and immobilized mouse tau (longest isoforms mTau40, 432 aa). Each antibody was run with various concentrations (0.11, 0.23, 0.46, 0.90, […], 3.7, 7.5 μg/ml) and plots are shown in the corresponding color. (FIG. 30A) SPR sensorgrams of HJ9.3 antibody binding to immobilized human tau and immobilized mouse tau (FIG. 30B). (FIG. 30C) SPR sensorgrams of HJ9.4 antibody binding to immobilized human tau and immobilized mouse tau (FIG. 30D). SPR sensorgrams of HJ8.5 antibody binding to immobilized (FIG. 30E) human and (FIG. 30F) mouse tau. (FIG. 30G) RAB soluble fractions of 3 month old tau knockout (KO), 3 month old wild-type (WT), 3 month old P301 S (3 mo) and 9 month old P301 S (9 mo) mice were analyzed by immunoblot by using the indicated anti-tau antibodies.
Surface plasmon resonance Surface plasmon resonance experiments were performed on BIAcore 2000 surface plasmon resonance instrument (GE Healthcare-BIAcore). Biacore sensor chip CM-5 was activated by using EDC (1-ethyl-3-(3-dimethylaminopropyl)-carbodiimide) and NHS (N-hydroxysuccinimide) in a 1:1 ratio for 7 minutes. […]

T2 sequence (P10636 other isoform, or with tags, fused parts or gaps limits assumed): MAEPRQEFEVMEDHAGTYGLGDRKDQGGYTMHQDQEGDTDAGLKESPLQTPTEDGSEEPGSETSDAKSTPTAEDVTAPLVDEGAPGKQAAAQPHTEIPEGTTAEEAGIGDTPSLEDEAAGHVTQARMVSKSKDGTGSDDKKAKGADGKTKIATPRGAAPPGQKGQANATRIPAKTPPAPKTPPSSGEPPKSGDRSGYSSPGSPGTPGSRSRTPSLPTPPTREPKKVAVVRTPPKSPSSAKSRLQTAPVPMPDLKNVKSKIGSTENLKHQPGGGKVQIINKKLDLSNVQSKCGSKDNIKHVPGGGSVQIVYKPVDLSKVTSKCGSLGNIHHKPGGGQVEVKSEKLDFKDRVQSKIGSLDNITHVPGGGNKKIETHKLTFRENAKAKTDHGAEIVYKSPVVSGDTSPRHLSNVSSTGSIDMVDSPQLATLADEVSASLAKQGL
T1 sequence (P10637 other isoform, or with tags, fused parts or gaps limits assumed): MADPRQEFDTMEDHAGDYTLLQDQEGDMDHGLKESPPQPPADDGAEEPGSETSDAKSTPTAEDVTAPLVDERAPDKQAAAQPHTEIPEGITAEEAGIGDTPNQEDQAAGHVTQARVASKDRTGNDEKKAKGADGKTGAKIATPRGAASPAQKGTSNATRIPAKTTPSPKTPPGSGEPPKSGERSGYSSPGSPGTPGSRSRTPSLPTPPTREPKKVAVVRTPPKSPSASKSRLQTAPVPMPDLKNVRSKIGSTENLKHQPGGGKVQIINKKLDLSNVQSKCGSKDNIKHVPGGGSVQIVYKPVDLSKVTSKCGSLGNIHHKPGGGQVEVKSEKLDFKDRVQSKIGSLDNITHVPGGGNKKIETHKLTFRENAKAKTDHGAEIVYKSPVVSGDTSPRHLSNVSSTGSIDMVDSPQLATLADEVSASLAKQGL
Sequence of recombinant mouse tau, longest isoform mTau40 (432 aa) (P10637 other isoform, or with tags, fused parts or gaps limits assumed): as above

B1: HJ8.5 (antibody, V domains shown)
VH: EVKVEESGGGLVQPGGSMKLSCVVSGFTFSNYWVNWVRQSPEKGLEWVAQIRLKSDNYATHYEESVKGRFTISRDDSKSSVYLQMNNLRAEDSGIYYCTNWEDYWGQGTTLTVSS
VL: DIVLTQSPASLAVSLGQRATISCRASQSVSTSRYSYIHWYQQKPGQPPKLLIKYASNLESGVPARFSGSGSGTDFTLNIHPLEEEDAATYYCHHSWEIPLTFGAGTKLELK
notes: also called HJ8.5B (biotinylated)
A word on the Kd: it is the equilibrium constant for the complex coming apart. The term koff denotes the rate constant with which the complex falls apart. As usually defined, the kon is the second-order rate constant of association. As for B1, the binding result in assay [1] is recorded as “no binding”; in assay [4] it was “no binding (tested: 7.5 µg/ml)”. Further, the dissociation constant (Kd) in assay [2] and in assay [3] was 0.336 pM in each case. Also, the koff in assay [2] and in assay [3] was 4.34e-08 s⁻¹ in each case. For the same molecule, the kon in assay [2] and in assay [3] was 130000 M⁻¹ s⁻¹ in each case.
